The values below come from US20250122274A1 (SCHOLAR ROCK, published 2025).

In assay [1] the target is T1, murine pro-myostatin (mouse, UniProt O08689 25-376, biotinylated (SPR)).
T1 construct: also called proGDF8 (mouse); mouse pro-myostatin
The experiment in a line: ELISA-type titration, absorbance 450 nm, panel Murine Pure Pro-GDF-8; protocol not described in the text. On the technique in general: In an ELISA, binding on a coated surface is turned into a signal by an enzyme label.

Assay [2] concerns the target T2, human pro-myostatin (human, UniProt O14793 24-375, biotinylated (SPR)).
T2 construct: Disulfide-linked homodimer; also called proGDF8 (human)
The experiment in a line: SPR Biacore 8K, biotinylated antigen captured.

Assay [3] deals with cyno pro-myostatin (cynomolgus monkey). Briefly: ELISA-type titration, OD 450 nm, Cyno-Pro-GDF-8 Plate 2; protocol not described in the text.
For assay [4] the target is unchanged. Briefly: ELISA-type titration, OD 450 nm, Cyno-Pro-GDF-8 Plate 1; protocol not described in the text.
Assay [5] has as its target T1, murine pro-myostatin. Briefly: ELISA-type titration, OD 450 nm, Mu-Pro-GDF-8 Plate 1; protocol not described in the text.

B1: Ab104 (antibody, human IgG4 S228P, kappa, V domains shown)
VH: EVQLVESGGGLVQPGGSLRLSCAASGSAFSSYGMSWVRQAPGKGLELVASINSNGGSTYYPDSVKGRFTISRDNAKNSLYLQMNSLRAEDTAVYYCARDLLVKFLSWSHYYGMDVWGQGTTVTVSS
VL: DIVMTQSPLSLPVTPGEPASISCRSSQSLLHSSGHNFLHWYLQKPGQSPQLLIYEVSNRVSGVPDRFSGSGSGTDFTLKISRVEAEDVGVYYCMQQTQYPPTFGGGTKVEIKR
In general, EC50 (read off the curve) refers to the concentration at which the effect is half-maximal. A lower EC50 (read off the curve) goes with a more potent agent. On to B1, for which the “EC50 (read off the curve)” value in assay [1] is roughly 0.7 nM.

B2: Ab109 (antibody, human IgG4 S228P, kappa, V domains shown)
VH: EVQLVESGGGLVQPGGSLRLSCAASGFTFSSYGMSWVRQAPGKGLELVASFTGSGGTYYPDSVKGRFTISRDNAKNSLYLQMNSLRAEDTAVYYCARDLLIRFLEWSHYYGMDVWGQGTTVTVSS
VL: DIVMTQSPLSLPVTPGEPASISCRSSQSLLHSSGHNFLHWYLQKPGQSPQLLIYEVSNRVSGVPDRFSGSGSGTDFTLKISRVEAEDVGVYYCMQQTQYPPTFGGGTKVEIKR
notes: also called Ab109 Human IgG4
As a reminder, the koff is a measure of how fast the partners let go of each other. Low values mean a long-lived complex, high ones a short-lived complex. The molecule B2 showed a koff in assay [2] of roughly 0.000916 s⁻¹.

B3: Ab116 (antibody, human IgG4 S228P, kappa, V domains shown)
VH: QVQLVQSGAEVKKPGASVKVSCKVSGFTFSRPAIHWVRQAPGKGLEWMGGINPNAATTIYAQKFQGRVTMTEDTSTDTAYMELSSLKSEDTAVYYCARGRLLREWELRPYDTWGQGTLVTVSS
VL: DIQMTQSPSSVSASVGDRVTITCRASQSIGKSLAWYQQKPGKAPKLLIYSASNLRSGVPSRFSGSGSGTDFTLTISSLQPEDFANYYCQQYRDVPPITFGGGTKVEIKR
In turn, B3 yielded an EC50 (read off the curve) in assay [3] of 0.5 nM.

B4: Ab110 (antibody, human IgG4 S228P, kappa, V domains shown)
VH: QVQLVQSGAEVKKPGASVKVSCKVSEYTFTNYDIHWVRQAPGKGLEWMGGISAYHGNAIYAQKFQGRVTMTEDTSTDTAYMELSSLKSEDTAVYYCARDRVRRDYYNFGMDVWGQGTTVTVSS
VL: DIQMTQSPSSVSASVGDRVTITCRASEDITSYLAWYQQKPGKAPKLLIYDVSSLQSGVPSRFSGSGSGTDFTLTISSLQPEDFANYYCLQHNAYPYGFGGGTKVEIKR
B4 registered a concentration giving a half-maximal response (EC50 (read off the curve)) in assay [4] of 0.3 nM.

B5: Ab113 (antibody, human IgG4 S228P, kappa, V domains shown)
VH: QVQLVQSGAEVKKPGASVKVSCKVSGYLLTELSIHWVRQAPGKGLEWMGGIIPSFGTAIYAQKFQGRVTMTEDTSTDTAYMELSSLKSEDTAVYYCAISYSGFDLLPLDKWGQGTLVTVSS
VL: DIQMTQSPSSVSASVGDRVTITCRASQHISTWLAWYQQKPGKAPKLLIYYASSLQGGVPSRFSGSGSGTDFTLTISSLQPEDFANYYCLQTYTYPRTFGGGTKVEIKR
For the molecule B5, the binding result in assay [5] is given as “binds”.
